Results from patent US20080292620A1 (Novartis, published 2008).
Substitutions are numbered along the chain they refer to. Values belong to the binder of their own block, whether it stands above or below them.

Columns and labels:
[1] = target: T1, recombinant extracellular domain (ECD) of the human prolactin receptor (PRLR) (human, UniProt P16471 25-234); experiment: Biacore 2000 SPR, antibody captured, PRLR ECD injected
T1 construct: also called PRLR ECD; Human PRLR; not shown: His tag
T1 sequence: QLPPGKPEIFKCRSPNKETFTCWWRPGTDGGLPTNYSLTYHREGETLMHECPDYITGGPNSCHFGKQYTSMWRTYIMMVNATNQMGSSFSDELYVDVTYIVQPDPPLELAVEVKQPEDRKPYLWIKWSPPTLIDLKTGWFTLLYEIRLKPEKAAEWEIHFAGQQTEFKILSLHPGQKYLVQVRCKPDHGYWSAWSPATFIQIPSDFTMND

[2] = target: T1, recombinant extracellular domain (ECD) …; experiment: Biacore 2000 SPR, antibody captured on Protein A/G, PRLR ECD titrated, 1:1 Langmuir, 25 C
[3] = target: T1, recombinant extracellular domain (ECD) …; experiment: Biacore SPR, antibody captured on Protein A/G, kinetic titration of PRLR ECD, 1:1 Langmuir
Description: (§1) Affinity of the chimerized and Human Engineered™ antibodies determined by Biacore analysis. Briefly, a CM5 sensor chip (Biacore) immobilized with Protein A/G (Pierce) via NHS/EDC was used to capture approximately 600 RU of antibody on the chip surface. Five concentrations of PRLR ECD beginning at 5 ug/mL (185 nM) and serially diluted at 5× dilution to 0.3 nM were injected from lowest to highest concentration in the kinetic titration injection mode, and 15 minutes of dissociation data was collected. The experiments were double-referenced, i.e. an adjacent flow cell response was subtracted automatically, and the response from a buffer injection experiment was subtracted from the experimental data set. Kinetic and derived parameters (kₐ, kd and KD) were determined by fitting to a 1:1 Langmuir model using BiaEval software customized to the kinetic titration injection mode. Affinity measurements of both chimeric and all Human Engineered™ antibodies against human and cynomolgus PRLR ECD are summarized in Table 9 and Table 10.

cynomolgus PRLR ECD [4] = target: T2, cynomolgus PRLR ECD (cynomolgus, UniProt A0A2K5WXK1 25-234); experiment: as above
T2 construct: extracellular domain; also called Cyno PRLR
T2 sequence: T1 sequence with I76V, A110T, I125M, I158T, T207I
Description: as §1

[5] = target: T1, recombinant extracellular domain (ECD) …; experiment: Biacore SPR, antibody covalently immobilized on CM4 chip, PRLR ECD 111 to 1.37 nM
cynomolgus PRLR ECD [6] = target: T2, cynomolgus PRLR ECD; experiment: as above
murine PRLR ECD [7] = target: T3, murine PRLR ECD (mouse, UniProt Q08501 20-229); experiment: as above
T3 construct: extracellular domain; also called Mouse PRLR
T3 sequence (looked up): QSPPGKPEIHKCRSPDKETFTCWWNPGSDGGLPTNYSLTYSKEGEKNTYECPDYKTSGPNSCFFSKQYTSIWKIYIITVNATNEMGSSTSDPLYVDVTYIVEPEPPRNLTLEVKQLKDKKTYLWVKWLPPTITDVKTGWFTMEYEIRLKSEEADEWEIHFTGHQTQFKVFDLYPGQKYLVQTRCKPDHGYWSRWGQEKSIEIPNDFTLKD

rat PRLR ECD [8] = target: T4, rat PRLR ECD (rat, UniProt P05710 20-229); experiment: as above
T4 construct: extracellular domain
T4 sequence (looked up): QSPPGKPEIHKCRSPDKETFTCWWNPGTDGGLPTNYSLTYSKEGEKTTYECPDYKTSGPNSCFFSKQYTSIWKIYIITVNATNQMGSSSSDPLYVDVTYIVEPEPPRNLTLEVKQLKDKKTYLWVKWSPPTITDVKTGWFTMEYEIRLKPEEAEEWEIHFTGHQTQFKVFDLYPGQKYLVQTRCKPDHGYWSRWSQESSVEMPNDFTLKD

rat PRLR ECD [9] = target: T4, rat PRLR ECD; experiment: Biacore SPR, antibody covalently immobilized on CM4 chip
Description: (§2) In order to compare rat and mouse cross reactivity using covalently immobilized antibodies, a CM4 chip was coupled with he.06.642-2 and he.06.275-4 antibodies via standard EDC-NHS amine coupling chemistries according to the recommended protocol from Biacore® Inc. The PRLR ECD injections were performed at five concentrations in a three fold titration series starting at 111 nM and going down to 1.37 nM. Regeneration was performed with Glycine pH3.0. The affinity of all of the HE variants of XHA.06.642 and XHA.06.275 are very similar to the affinity of the parental chimeric antibody. Antibody he.06.642-2 binds to human, mouse and rat PRLR with equivalent affinity.

murine PRLR ECD [10] = target: T3, murine PRLR ECD; experiment: Biacore SPR, antibody covalently immobilized on CM4 chip, PRLR ECD 111 to 1.37 nM; same run as N2: antibody covalently immobilized on CM4, PRLR ECD 111 to 1.37 nM; very weak fitted binding
Description: as §2

murine PRLR ECD [11] = target: T3, murine PRLR ECD; experiment: Biacore SPR, antibody covalently immobilized on CM4 chip, PRLR ECD 111 to 1.37 nM; same run as N2: KD about 17.6 uM, far above the top concentration of 111 nM, which the text calls not binding effectively
Description: as §2

- Kd [1]: 10 nM
B1: XPA.06.145 (Fc fusion)
chain 1: EVQLLESGGGLVQPGGSLRLSCAASGFTFSNYGMHWVRQAPGKGLEWVSLISWDGGRTSYTDSVKGRFTISRDNSKNTLYLQMNSLRAEDTAVYYCARGLIGDNWGQGTLVTVSS
chain 2: QSVLTQPPSASGTPGQRVTISCTGSSSNIGAGYDVHWYQQLPGTAPKLLIYDNNKRPSGVPDRFSGSKSGTSASLAISGLRSEDEADYYCAAWDDSLNGWVFGGGTKLTVL

- Kd [1]: 4 nM
B2: XPA.06.167 (Fc fusion)
chain 1: EVQLLESGGGLVQPGGSLRLSCAASGFTFGSYGMHWVRQAPGKGLEWVSLISWDGGSTYYADSVKGRFTISRDNSKNTLYLQMNSLRAEDTAVYYCASSISAAATGLDYWGQGTLVTV
chain 2: not shown

- Kd [1]: 0.7 nM
- Kd [2]: 0.7 nM
- koff [2]: 7.3e-05 s⁻¹
- kon [2]: 110000 M⁻¹ s⁻¹
B3: XPA.06.158 (Fc fusion)
chain 1: EVQLLESGGGLVQPGGSLRLSCAASGFTFSSYGMHWVRQAPGKGLEWVSLISWDGYRTHYADSVKGRFTISRDNSKNTLYLQMNSLRAEDTAMYYCTTGASYHALWGQGTLVTV
chain 2: QSVLTQPPSASGTPGQRVTISCSGSRSNIGNNYVSWYQQLPGTAPKLLIYDDIKRPSGVPDRFSGSKSGTSASLAISGLRSEDEADYYCATWDDSLNGPVFGGGTKLTVL

- Kd [3]: 2 nM
- Kd (cynomolgus PRLR ECD [4]): 31 nM
B4: he.06.642-1 (antibody, V domains shown)
VH: EVQLVESGGGLVQPGGSLRLSCAVSGFTFSSYGMSWVRQAPGKRLEWVATVSSGGTYTYYPDSVKGRFTISRDNSKNTLYLQMNSLRAEDTAMYYCARHRGNYYATYYYAMDYWGQGTLVTVSS
VL: DIVLTQSPDSLAVSLGERATINCKASKSVSTSGYTYMHWYQQKPGQPPKLLIYLASNRESGVPDRFSGSGSGTDFTLTISPVQAEDVATYYCQHSGELPPSFGQGTKLEIK
notes: Human Engineered

- Kd [5]: 2.6 nM
- Kd (cynomolgus PRLR ECD [6]): 38.9 nM
- Kd (murine PRLR ECD [7]): 2.7 nM
- Kd (rat PRLR ECD [8]): 1.9 nM
- Kd [3]: 3.1 nM
- Kd (cynomolgus PRLR ECD [4]): 47 nM
B5: he.06.642-2 (antibody, V domains shown)
VH: B4 VH with R44G, M93V
VL: B4 VL
notes: Human Engineered

- Kd [2]: 9.8 nM
- koff [2]: 0.0053 s⁻¹
- kon [2]: 550000 M⁻¹ s⁻¹
B6: XPA.06.147 (Fc fusion)
chain 1: EVQLLESGGGLVQPGGSLRLSCAASGFTFSSYGMHWVRQAPGKGLEWVSAIGGRGVSTYYADSVKGRFTISRDNSKNTLYLQMNSLRAEDTAVYYCARGSNWTHALGFDPWGQGTLVTV
chain 2: not shown

- Kd [1]: 7 nM
B7: XPA.06.217 (Fc fusion)
chain 1: EVQLLESGGGLVQPGGSLRLSCAASGFTFSSYAMHWVRQAPGKGLEWVSSISSSSSSIYYADSVKGRFTISRDNSKNTLYLQMNSLRAEDTAVYYCARGGGQQLGAFDIWGQGTLVTV
chain 2: not shown

- Kd [2]: 2.1 nM
- koff [2]: 7.3e-05 s⁻¹
- kon [2]: 34000 M⁻¹ s⁻¹
B8: XPA.06.131 (Fc fusion)
chain 1: EVQLLESGGGLVQPGGSLRLSCAASGFTFNSYPVHWVRQAPGKGLEWVAVISYDGNTKYYADSVKGRFTISRDNSKNTLYLQMNSLRAEDTAVYYCARDNPPFDYWGQGTLATV
chain 2: QSVLTQPPSASGTPGQRVTISCSGSSSNIGNNYVSWYQQLPGTAPKLLIYDNNNRPSGVPDRFSGSKSGTSASLAISGLRSEDEADYYCEAWDDTLNGPHVVFGGGTKLTVL

- Kd [2]: 8.4 nM
- koff [2]: 0.00053 s⁻¹
- kon [2]: 63000 M⁻¹ s⁻¹
B9: XPA.06.141 (Fc fusion)
chain 1: EVQLLESGGGLVQPGGSLRLSCAASGFTFSNSGMHWVRQAPGKGLEWVAAISYDGSNKYYADSVKGRFTISRDNSKNTLYLQMNSLRAEDTAVYYCARADSSGTVDYWGQGTLVTV
chain 2: not shown

- Kd [1]: 20 nM
B10: XPA.06.178 (Fc fusion)
chain 1: EVQLLESGGGLVQPGGSLRLSCAASGFTFDDYGMSWVRQVPGKGLEWVSLISWDGGSTYYADSVKGRFTISRDNSKNTLYLQMNSLRAEDTAVYYCARPSGAYPTPFDNWGQGTLVTV
chain 2: not shown

- Kd [3]: 0.5 nM
- Kd (cynomolgus PRLR ECD [4]): 1.6 nM
B11: he.06.275-1 (antibody, V domains shown)
VH: DVQLQESGPGLVKPSQTLSLTCTVTGYSITSDYAWNWIRQFPGKKLEWMGYISYSGSTSYNPSLKSRITISRDTSKNQFSLQLNSVTAADTATYFCARDYGYVFDYWGQGTTLTVSS
VL: DVQITQSPSSLSASPGDRITLTCRASKNIYKYLAWYQEKPGKTNNLLIYSGSTLHSGIPSRFSGSGSGTDFTLTISSLQPEDFAMYYCQQHNDYPYTFGQGTKLEIK
notes: Human Engineered

- Kd [3]: 0.61 nM
- Kd (cynomolgus PRLR ECD [4]): 1.9 nM
B12: he.06.275-2 (antibody, V domains shown)
VH: B11 VH with D1Q, T25S, K45G, T93V
VL: B11 VL
notes: Human Engineered

- Kd [3]: 0.43 nM
- Kd (cynomolgus PRLR ECD [4]): 1.3 nM
B13: he.06.275-3 (antibody, V domains shown)
VH: B11 VH
VL: B11 VL with T43A, N45K
notes: Human Engineered

- Kd [5]: 1.3 nM
- Kd (cynomolgus PRLR ECD [6]): 6.4 nM
- Kd [3]: 0.52 nM
- Kd (cynomolgus PRLR ECD [4]): 1.7 nM
- koff (murine PRLR ECD [10]): 0.037 s⁻¹
- kon (murine PRLR ECD [10]): 2100 M⁻¹ s⁻¹
- Kd (murine PRLR ECD [11]): 17600 nM
B14: he.06.275-4 (antibody, V domains shown)
VH: B11 VH with D1Q, T25S, K45G, T93V
VL: B11 VL with T43A, N45K
notes: Human Engineered
- binding result (rat PRLR ECD [9]): no binding (tested: PRLR ECD up to 111 nM)
